Source: paper PMC12916166 (The Journal of cell biology, 2025)

Target: Aip5C-L (997–1234) (S. cerevisiae, UniProt P43597 997-1233)
Assay: fluorescence polarisation

Sequence of Aip5C-L (997–1234) (P43597 997-1233): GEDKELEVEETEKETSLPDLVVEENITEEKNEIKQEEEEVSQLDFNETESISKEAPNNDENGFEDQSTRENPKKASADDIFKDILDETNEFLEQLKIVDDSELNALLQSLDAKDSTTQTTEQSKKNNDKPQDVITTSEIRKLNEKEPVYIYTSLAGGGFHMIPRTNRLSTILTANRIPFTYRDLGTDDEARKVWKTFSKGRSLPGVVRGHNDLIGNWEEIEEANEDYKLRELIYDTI

B1: Bud6 (1–145)-kCk-Alexa488 (domain or fragment, S. cerevisiae, UniProt P41697 1-145, looked up)
chain: MKMAVDDPTYGTPKIKRTASSSSSIETTVTKLLMSTKHLLQVLTQWSKGTTSGRLVSDAYVQLGNDFKVVSKFFMHAKVDMSDVGDVPMALRRVLEVTLREPPSDETLNKHLPKIREIIVTLLDKLKVKQAILKNMQQEHRISVK
modifications: Alexa488 maleimide on the single cysteine of the C-terminal KCK sequence
In the case of B1, the Kd is reported as 85 nM.
